The values that follow come from the DeepSol protein solubility set.

A short description of this data set: soluble on expression in E. coli; label from the status in PepcDB or PDB records.
On to “MGSDKIHHHHHHMIRLLFASLLAASPIHAQGFAGLGTVADGFAVPAPNPTFSFPDDHGPHPDYRIEWWYLTATLTGADGIDYGIQWTLFRSALAPTTSTDWTAPQIFMGHAGLTTPDAHFSAERLARGGIGQAGVTPVPFRAFIDDWEMTSTTAEGDAYDALSLTARGVDFAYDLALQANGPLIFHGQNGFSVKSAEGQASYYYSQPFYTVTGTLTLPTGAVEVSGNAWLDREWSSQPLSDDQSGWDWFSLQLPDGARLMAFALRDTSDQPFTSATYIAPDGTTQAYGDGAITLTPLVTTDVGGRDVPTEWRLQFPDRGIDITTQPLNPQSWMDTSFPYWEGPITFTGTHDGRGYLEMTGYE”, for which the “soluble on expression in E. coli” value is given as “not soluble”.

For “MGSDKIHHHHHHMGFDLDVEKKKENRNIPQANNLKIKVIGVGGAGNNAINRMIEIGIHGVEFVAVNTDLQVLEASNADVKIQIGENITRGLGAGGRPEIGEQAALESEEKIREVLQDTHMVFITAGFGGGTGTGASPVIAKIAKEMGILTVAIVTTPFYFEGPERLKKAIEGLKKLRKHVDTLIKISNNKLMEELPRDVKIKDAFLKADETLHQGVKGISELITKRGYINLDFADIESVMKDAGAAILGIGVGKGEHRAREAAKKAMESKLIEHPVENASSIVFNITAPSNIRMEEVHEAAMIIRQNSSEDADVKFGLIFDDEVPDDEIRVIFIATRFPDEDKILFPEGDIPAIYRYGLEGLL”, the “soluble on expression in E. coli” value is on record as “not soluble”.

Consider “GMLFESINTGCLDGNDTPWMPFAPYSNDVMVKYFKIDPVRGETITLLKAPAGMEMPRHHHTGTVIVYTVQGSWRYKEHDWVAHAGSVVYETASTRHTPQSAYAEGPDIITFNIVAGELLYLDDKDNIIAVENWKTSMDRYLNYCKAHGIRPKDLSTFEG”, for which the “soluble on expression in E. coli” value was “soluble”.

“MEKLRIKGMSYTMCSGKFSIDKEMAETQHGTTVVKVKYEGAGAPCKVPIEIRDVNKEKVVGRIISSTPLAENTNSVTNIELEPPFGDSYIVIGVGNSALTLHWFRKGSSIGK”: the “soluble on expression in E. coli” value is reported as “soluble”.

Regarding “AIREFNTKEKVFNEFTAVFDVLNHLPAFAKLHLANSMSVRYANTLGISQRNAEVFANRGTSGIDGVISTAYGYALKTSQLVTIITGDLAFFYDRNAFWNNYKPSNLRVVLLNNHGGGIFRMIDGPSALPELDELFETKQTLSARYLATEHGLEYTLCKNLNGLNQALESFFQPSMFGKILEIETDSVKN”, the “soluble on expression in E. coli” value is reported as “not soluble”.

Take “AHQTKVDTLIVTNSKAWKPFSYVSQDGEPKGILIDFWREYAERNHVRVEFLLLDWEESLRAVKEGRADVHAGLIYSEARDKYLDFGAVIMPIQTKLYVNKDMLAVDIKGVLTGEVELPIGLVKGSYEAEFVRANYPRASLVEYLNNDAMIRAAVEKNILYFVADLQVAN”: the “soluble on expression in E. coli” value was “not soluble”.

“MAVSLVKGGNVSLTKEAPTMNIAVVGLGWDARVTDGSEFDLDASVFMVGENGKVLSDQHFIFFNNKVSPCGSVVHQGDNRTGAGDGDDEQIKIDLKKVPADVKKIIFSVTIYDAEARKQNFGMVSNSFMRVVNEDNSAEIARFDLSEDASTETAMIFGELYRNNDEWKFKAVGQGFAGGLSALASQHGVSV”: the “soluble on expression in E. coli” value is “not soluble”.

For “MSGRPFLLIHTFKDISKFREGDRDYSDIEVRYNIPWRLRIFKKEGFLGLKLYCEKEECIETKKWTFKTKFTMKLVAVDLPSSQSDFNNSFLLKHTFNNISKFVERDSDYSDAEDHYNIAWKIRILKYEECLGIYLDCQKEIYEGRKWSIKCEFKSSLISASGKFYSVQYTDVFDNRDSSMGSSTFISWIDMEKEYVTNDDCIDVTIHAKIISITDEPCEMKTFALSHTIKNMSSIREGEDYDTDTQYRFNIPWSLKILNRNEFSGLFIRCEKQLCKSRKWSIETEYQLKIVSPNGRSELFGGTYVFDNPNIYGWHIIRWSSLEDRYIVNDTLTVEAQVTIVKMTGIEDETPIEKPSGIVIPVGNQEFSLERWMEMAFDH”, the “soluble on expression in E. coli” value is listed as “not soluble”.

On to “MGSDKIHHHHHHMHTELNHVMPWRIEDIDLTRIDRQKAVANEDLLLLLCASSFIESGSDLYTANLSTFFNGDPEVSAWLNQEWEPEELQHGRALKTYIAYVWPEFDWDTAFRNFMEEYSLTCSVEDFEKTRALEMVARCVVETGTATLYRAIGECSDEPVLKQITDNIRTDEVRHYKHFFKYFKKYNKIEGNGRLAVLGALMRRVMEIKNEDSEIALRHVFAVRYPERVHDSAYNRERAARINALVRRNLSADMCVKMLLKPLDLPARIQPGVHYPLAKITQHVFFR”, for which the “soluble on expression in E. coli” value is given as “not soluble”.

Consider “MAHHHHHHMSYYDKSDKIGYDDTDKELNEELEEMLARTPPHIQRHLQHRIHDGILQRMKEDTARRCWEFIKKYETCVNSVKPYDLTDCRPHRDALNDCAHEVNREQIYQKYRMMYLRGELLRLHESRLGQKMETMKVRAPDSIRGWKPDYAPKYAEMMSDIGLNLGPEAADERKLS”, for which the “soluble on expression in E. coli” value is “not soluble”.

Regarding “MAHHHHHHMPPKRYPNRLLVLCASINDVTAWPFWKFLQMKKIRGVTDMALLAFNSDGGSFEARIDGDKYQLKNYAKVRGYQHDMFESFVHRWHDPGRSYFVYGGHGMGDYVELEQNRVIAAGARARRRLRHACLRSSAL”, the “soluble on expression in E. coli” value is given as “not soluble”.

As to “MGSDKIHHHHHHMDLKEKILDYKDEVVKEIQNAVRVKSVKEAPLPGMPFGEGPAKALDHFMDLAKKLGFKAEKFDNYAMHIDMGEGKETLGILAHVDVVPEGDNWTYPPYSGTIADGKIFGRGTLDDKGPAIISLFAMKAIADSGVKLNKKIRMILGADEESGSACLKYYFGELKMPYPDIAFTPDSSFPVTYAEKGSVRVKIKKKFNTLQDLVIKGGNAFNSVPNEANGVIPVDMLGEVRNKNKVEFEREGNTYKVFSAGIPAHGAYPSKGYNAVSALFEVLKDIEVKNEELKGLVTFFDKFVKMETDGKSFGVKCTDGETGELTLNLGKINLENNELEIWIDMRIPVKVKNEQIIETIKENTEDYGYEFLLHSNTQPLYVAKDSFLVSTLMNIYKELTGDNDAEPVAIGGGTYAKYAKNAVAFGALLPDQEDRMHQRDEYLEISKIDKLLQIYVEAIYRLAK”, the “soluble on expression in E. coli” value is reported as “not soluble”.

As to “MNVIYPLAVPKGRRLCCEVCEAPAERVCAACTVTYYCGVVHQKADWDSIHEKICQLLIPLRTSMPFYNSEEERQHGLQQLQQRQKYLIEFCYTIAQKYLFEGKHEDAVPAALQSLRFRVKLYGLSSVELVPAYLLLAEASLGLGRIVQAEEYLFQAQWTVLKSTDCSNATHSLLHRNLGLLYIAKKNYEEARYHLANDIYFASCAFGTEDIRTSGGYFHLANIFYDLKKLDLADTLYTKVSEIWHAYLNNHYQVLSQAHIQQMDLLGKLFENDTGLDEAQEAEAIRILTSILNIRESTSDKAPQKTIFVLKILVMLYYLMMNSSKAQEYGMRALSLAKEQQLDVHEQSTIQELLSLISTEDHPIT”, the “soluble on expression in E. coli” value is listed as “soluble”.

For “SSSSVPNSDRKIVTGPAGYILEDVPHFSDDFPDHPTYPNPLQDNAAYSVVKQYFVDEDDTVPQKIVVHPDSPRGTHFRRAGPRQRVYFESDDVLACIVTCGGLCPGLNTVIREIVCGLSYMYGVKRILGIDGGYRGFYARNTIHLDLKTVNDIHRSGGTILGTSRGGHNTTKIVDSIQDRGINQVYIIGGDGSQKGAAAIFEEIRKRKLKVAVAGIPKTIDNDIPIIDRSFGFDTAVEEAQRAINAAHVEATSFENGIGLVKLMGRYSGFIAMHATLASRDVDCCLIPESPFFLEGSGGLFEFIDKRLKESGHMVIVIAEGAGQDLLSESMKESTTLKDASGNKLLQDIGLWISQRIKDHFAKKMTLTLKYIDPTYMIRAVPSNASDNVCCTLLAQSAVHGVMAGYNGFTVGLVNGRHTYIPFNRITEKQNKVVITDRMWARLLSSTNQPSFMKQADKIHSNQLVGEPGTMKW”, the “soluble on expression in E. coli” value was “soluble”.

Take “MSPANRVVQPYSKEDLAIQVSQLSGSRAAIWKALDSIDSWSYRVFDVQAAMSGDDYLSLSTQTHGGSLLITMYALLCMHDFLQKFKIDEQIALNWISAVEASYHGNPYHNSMHAADVLQITDFIITQGGLAKRCDLSDIQVFSALLAASIHDFDHPGINNNFHIKTGSYLATLYNDRSVLENLHVSSVFELMKNPAFNILASFSDEQHHEVRETMIEMVLATDMGSHGKYVASLKGKMQEHSSFTQTAEQNLCLAIALKMADISNCGRPLDIYLRWGAKVSDEFYQQGDRERNLGLECSPFMDRLQPSLAKSQIAFMNYIITPFFEQVAELLPDMRFAVALVEENKAYWANHDDS”: the “soluble on expression in E. coli” value is listed as “not soluble”.

For the sequence “MVEARSRHEFVALQLRQRIMQRQYAVGESLPSESMLCAEFEVSRGPVRQALATLKNEGLIQLSQGKPAVVRSHDITQTLDTFTPFSQWARRTGRVAGSRTLEISRRRVSEPAASALGSAPDDFVVEVLRVRLLDGEPTMIERSTFTDRVGSLLFDFDIDTGSITDYLTSRGVRFESMEHVLDAVAATGVDAENLRIDPGSPLLRERRTSRDQNGDTFEYADDRYRPDLVAFSIVNARTIDPRLPSDDGNGA”, the “soluble on expression in E. coli” value is given as “not soluble”.

On to “MTHFKGGTMSQFEKYHPILTPHYTFDWLTKVRVIDVFNLYQTSNATATMETTAAQINHTMREIFHDHQLVWGVTARDTNAFVGQVGFAPIDTAKHEATLSVDLTATYQQVTTLREILERLVAFGTVELKLNRLTLILPKHDDLMAQILAGLNFSTTDHLTFNYHQ”, for which the “soluble on expression in E. coli” value is recorded as “not soluble”.

On to “MTTETIQSNANLAPLPPHVPEHLVFDFDMYNPSNLSAGVQEAWAVLQESNVPDLVWTRCNGGHWIATRGQLIREAYEDYRHFSSECPFIPREAGEAYDFIPTSMDPPEQRQFRALANQVVGMPVVDKLENRIQELACSLIESLRPQGQCNFTEDYAEPFPIRIFMLLAGLPEEDIPHLKYLTDQMTRPDGSMTFAEAKEALYDYLIPIIEQRRQKPGTDAISIVANGQVNGRPITSDEAKRMCGLLLVGGLDTVVNFLSFSMEFLAKSPEHRQELIERPERIPAACEELLRRFSLVADGRILTSDYEFHGVQLKKGDQILLPQMLSGLDERENACPMHVDFSRQKVSHTTFGHGSHLCLGQHLARREIIVTLKEWLTRIPDFSIAPGAQIQHKSGIVSGVQALPLVWDPATTKAVHHHHHH”, for which the “soluble on expression in E. coli” value is on record as “soluble”.

Turning to “MGSDKIHHHHHHMADFPTRPDEVDAVWLEARLADAGVLDGARIVKVEWQSIGTGQVGDTARFSLTYDRPAPLAPASVAAKFPSSDPTSRQTAASFSLYKREVNFYRDVAGLIDMRVPRAYAALLDDNGCDFVLLFEDLGPCEAGNQLSGCGIDQARDALRQAAALHAATLDHPVLDSEWLQTDPQASAMLRALYPQAQAIFRERYADALDPALMAICDELDECADLWFDRKPARRSFLHGDFRLDNMLFGIRDGQEPIALVDWQTAAVGCGLTDIGYFMGCGIGSGLRRPHEAALLDLYCAEMTRRGVAMTRDEIMDDYRIGALHGVSTAVFSSAFVVRTERGDANFLSMARGACELALEHNSLGALKRRMENA”, the “soluble on expression in E. coli” value is on record as “not soluble”.

“MSLQPNTYFLHNILVTGATGFVGSFLCSRLLAEGMSVRGTFLVTENPDSLVKGTEQALIEPIGPATFWGHALAGAGTVIHLAARVHVMRERAADPLKEFRFVNTEGTAHLAREAAKAGVKRFVFMGTIGVNGDNSGDAPYIESSPPYPHNPYSVSKYEAEQLLRQISSETGMEVVIIRAPLVYGPGNPGNFLSLLKAVNGDYGFKTLNFGLKVLPLPLASINNKRSLIYVGNLVDALVTCATHPAAVGQTYLVSDGEDVSTPELIRRTAAALGVPARLFPFPVPLMKLAGKLIDKSAAVNRLTGSLTVDSSKIRRELGWQPPFTMEEGLQETAKWFEKQGEGHHHHHH”: the “soluble on expression in E. coli” value is on record as “soluble”.

Take “NKYDWFEFFLNCGVDVSNCQRYTINFDREQLTEDMMPDINNSMLRTLGLREGDIVRVMKHLDKKFGRENIAS”: the “soluble on expression in E. coli” value is listed as “soluble”.

In the case of “MALHHHHHHGVTGELRRRADGIWQRILAHPFVAELYAGTLPMEKFKYYLLQDYNYLVNFAKALSLAASRAPSVDLMKTALELAYGTVTGEMANYEALLKEVGLSLRDAAEAEPNRVNVSYMAYLKSTCALEGFYQCMAALLPCFWSYAEIAERHGGKLRENPVHVYKKWASVYLSPEYRGLVERLRAVLDSSGLSAEELWPYFKEASLYELEFWQAAYEGH”, the “soluble on expression in E. coli” value was “soluble”.
